The results in this text go back to patent publication US20120201746A1 (AbbVie / Abbott, published 2012).

The target of assay [1] is T1, cell surface CD28 on Jurkat E6-1 cells (UniProt P10747 19-220, limits assumed).
T1 construct: whole, on cells; Jurkat is a human cell line
The assay can be described thus: flow cytometry on Jurkat E6-1 cells. A general note: Flow cytometry measures light scatter and fluorescence of single cells or particles in a stream.
Procedure: Jurkat E6-1 cells (ATCC, Manassas, Va.) were harvested and washed with PBS, and resuspended in ice cold PBS with 10% FCS (GIBCO®) at 2×10⁷ cells/ml. Anti-CD28 antibodies or half-Ig binding protein (1 μl) was added to tubes containing 100 μl of cell suspension, then incubated on ice for 30 min. The cells were washed 3 times and resuspended in ice cold PBS, then stained with PE labeled anti-human IgG1 antibody (Southern Biotech, Birmingham, Ala.) according to manufacturer's instructions. After secondary staining, the cells were washed and resuspended in ice cold PBS with 10% FCS. FACS analysis was performed on a FACScan (Becton Dickinson, Franklin Lakes, N.J.).

Assay [2] concerns the target Recombinant Human TNF-α/TNFSF1A (human, UniProt P01375 77-233). The assay can be described thus: SPR (BIAcore). Background: Surface plasmon resonance follows binding to a sensor surface in real time, without labels.
Procedure: The BIAcore® assay (BIAcore®, Inc, Piscataway, N.J.) determines the affinity of antibodies with kinetic measurements of on-rate and off-rate constants. Binding of antibodies to a target antigen (for example, a purified recombinant target antigen) is determined by surface plasmon resonance-based measurements with a BIAcore® 1000 or 3000 instrument (BIAcore® AB, Uppsala, Sweden) using running HBS-EP (10 mM HEPES [pH 7.4], 150 mM NaCl, 3 mM EDTA, and 0.005% surfactant P20) at 25° C. […] Unreacted moieties on the biosensor surface are blocked with ethanolamine. Modified carboxymethyl dextran surface in flowcell 2 and 4 is used as a reaction surface. Unmodified carboxymethyl dextran without goat anti-mouse IgG in flow cell 1 and 3 is used as the reference surface. For kinetic analysis, rate equations derived from the 1:1 Langmuir binding model are fitted simultaneously to association and dissociation phases of all eight injections (using global fit analysis) with the use of Biaevaluation 4.0.1 software. Purified antibodies are diluted in HEPES-buffered saline for capture across goat anti-mouse IgG specific reaction surfaces. […] The association and dissociation rate constants, kₒₙ (M⁻¹s⁻¹) and koff (s⁻¹), are determined under a continuous flow rate of 25 μl/minute. Rate constants are derived by making kinetic binding measurements at different antigen concentrations ranging from 10-200 nM. The equilibrium dissociation constant (M) of the reaction between antibodies and the target antigen is then calculated from the kinetic rate constants by the following formula: KD=koff/kₒₙ. Binding is recorded as a function of time and kinetic rate constants are calculated.

Chain of Recombinant Human TNF-α/TNFSF1A (P01375 77-233 limits assumed): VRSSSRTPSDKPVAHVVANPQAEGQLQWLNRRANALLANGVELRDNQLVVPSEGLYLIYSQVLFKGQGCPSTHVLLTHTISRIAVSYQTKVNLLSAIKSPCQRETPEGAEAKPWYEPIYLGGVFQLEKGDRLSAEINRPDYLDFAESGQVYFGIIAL

B1: Anti-CD28 Ig (parental antibody 9.3) (antibody, human IgG1, kappa, V domains shown)
VH: QVKLQQSGAELVKPGASVRLSCKASGYTFTEYIIHWIKLRSGQGLEWIGWFYPGSNDIQYNAKFKGKATLTADKSSSTVYMELTGLTSEDSAVYFCARRDDFSGYDALPYWGQGTMVTVSS
VL: DIQMTQSPASLSVSVGETVTITCRTNENIYSNLAWYQQKQGKSPQLLIYAATHLVEGVPSRFSGSGSGTQYSLKITSLQSEDFGNYYCQHFWGTPCTFGGGTKLEIKR
notes: 9.3 variable domains on human Cg1 (z, non-a) and human Ck; also called anti-CD28 antibody 9.3
For B1, the binding result in assay [1] is listed as “binds”.

B2: ½ hTNFaR Fc (Fc fusion)
chain: LPAQVAFTPYAPEPGSTCRLREYYDQTAQMCCSKCSPGQHAKVFCTKTSDTVCDSCEDSTYTQLWNWVPECLSCGSRCSSDQVETQACTREQNRICTCRPGWYCALSKQEGCRLCAPLRKCRPGFGVARPGTETSDVVCKPCAPGTFSNTTSSTDICRPHQICNVVAIPGNASMDAVCTSTSPTRSMAPGAVHLPQPVSTRSQHTQPTPEPSTAPSTSFLLPMGPSPPAEGSTGDEPKSSDKTHTSPPSPAPELLGGPSVFLFPPKPKDTLMISRTPEVTCVVVDVSHEDPEVKFNWYVDGVEVHNAKTKPREEQYNSTYRVVSVLTVLHQDWLNGKEYKCKVSNKALPAPIEKTISKAKGQPREPQVYTLPPSREEMTKNQVSLTCLVKGFYPSDIAVEWESNGQPENNYKTTPPVLDSDGSFRLYSKLTVDKSRWQQGNVFSCSVMHEALHNHYTQKSLSLSPGK
notes: Half receptor-Fc with Fc-Mut18; 55 % half-Ig by SEC; also called half hTNFaR Fc
As for B2, in assay [2], the on-rate (kon) (as a rule, the second-order rate constant of association) came out at 1.9e+06 M⁻¹ s⁻¹.
